Data: PMC9907325

What was measured:
[1] = biological target: Fc-tagged human IL-2Rαβγ (Acro, ILG-H5257) (human) (UniProt P01589)
[2] = biological target: HCW9302 (IL-2/TF/IL-2 fusion protein) (human) (UniProt P13726); experiment: SEC; HPLC-SEC profile of purified native HCW9302
[3] = biological target: Fc-tagged human IL-2Rα (Acro, ILA-H5251) (human) (UniProt P01589); experiment: SPR; Biacore 8K; Fc-tagged receptors captured by immobilised anti-human IgG (Fc) antibody on CM5 chips; 2-fold dilutions of HCW9302 or IL-2 injected 120 s, dissociation 300 s; regeneration 3 M magnesium chloride; 1:1 fitting model; KD apparent
[4] = biological target: Fc-tagged human IL-2Rαβγ (Acro, ILG-H5257) (human) (UniProt P01589); experiment: as above
[5] = biological target: Fc-tagged human IL-2Rβγ (Acro, ILG-H5254) (human) (UniProt P14784); experiment: as above
Sequence of UniProt P14784 (P14784 27-240, chain 1 of 2): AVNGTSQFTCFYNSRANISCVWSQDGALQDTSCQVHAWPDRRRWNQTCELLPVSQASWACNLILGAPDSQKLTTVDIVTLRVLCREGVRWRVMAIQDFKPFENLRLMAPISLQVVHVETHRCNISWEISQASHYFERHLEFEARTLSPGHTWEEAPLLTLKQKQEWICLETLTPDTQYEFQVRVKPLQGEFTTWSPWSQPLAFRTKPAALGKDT
Sequence of UniProt P14784 (P31785 23-262, chain 2 of 2, further chain): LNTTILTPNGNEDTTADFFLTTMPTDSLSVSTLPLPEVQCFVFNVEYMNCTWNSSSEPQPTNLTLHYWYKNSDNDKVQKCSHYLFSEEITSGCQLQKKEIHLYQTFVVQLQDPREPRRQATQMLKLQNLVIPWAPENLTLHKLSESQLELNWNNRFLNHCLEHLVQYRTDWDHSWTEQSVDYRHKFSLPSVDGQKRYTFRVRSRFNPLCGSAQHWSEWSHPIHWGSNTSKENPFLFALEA

[6] = biological target: His-tagged cynomolgus IL-2Rα (Sino, 90265-C08H) (cynomolgus monkey); experiment: SPR; His-tagged human, mouse or cynomolgus IL-2Rα chemically immobilised by amine coupling on CM5 chips; 2-fold dilutions of HCW9302 or IL-2 injected 90 s, dissociation 210 s; regeneration 3 M magnesium chloride; 1:1 fitting model; KD apparent
[7] = biological target: His-tagged human IL-2Rα (Acro, ILA-H5251) (human) (UniProt P01589); experiment: as above
[8] = biological target: His-tagged mouse IL-2Rα (Acro, ILG-M52H9) (mouse) (UniProt P01590); experiment: as above
Sequence of UniProt P01590 (P01590 22-236): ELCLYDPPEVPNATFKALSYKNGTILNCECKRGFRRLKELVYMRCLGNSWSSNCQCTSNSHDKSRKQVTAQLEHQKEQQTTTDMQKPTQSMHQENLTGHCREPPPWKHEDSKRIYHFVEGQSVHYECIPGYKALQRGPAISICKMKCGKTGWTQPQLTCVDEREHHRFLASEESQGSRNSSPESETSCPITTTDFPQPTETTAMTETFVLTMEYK

phosphorylation of STAT5 in human Treg cells (PBMC, 30 min, 0.15-15000 pM), half-maximal stimulation (EC50) [1] | stoichiometry N [2] | Kd [3] | koff [3] | Kd [4] | koff [4] | kon [4] | Kd [5] | koff [5] | kon [5] | Kd [6] | koff [6] | kon [6] | Kd [7] | koff [7] | kon [7] | Kd [8] | koff [8] | kon [8] | Substance
6.12 pM | 2 | 0.00199 nM | 0.107 s⁻¹ | 0.00201 nM | 0.000771 s⁻¹ | 3.83e+08 M⁻¹ s⁻¹ | 0.117 nM | 0.00017 s⁻¹ | 1.45e+06 M⁻¹ s⁻¹ | 0.00319 nM | 0.000457 s⁻¹ | 1.43e+08 M⁻¹ s⁻¹ | 0.0132 nM | 0.00289 s⁻¹ | 2.18e+08 M⁻¹ s⁻¹ | 0.296 nM | 0.000918 s⁻¹ | 3.1e+06 M⁻¹ s⁻¹ | HCW9302 (IL-2/TF/IL-2 fusion protein) (from UniProt P13726 33-251) (ligand)
43.1 pM |  |  |  |  |  |  |  |  |  |  |  |  |  |  |  |  |  |  | aldesleukin (Proleukin), clinical grade rhIL-2 (from UniProt P60568 21-153) (ligand)
 |  |  |  |  |  |  |  |  |  | 16.3 nM | 0.212 s⁻¹ | 1.3e+08 M⁻¹ s⁻¹ |  |  |  |  |  |  | human IL-2 (Acro, S13-H5113) (from UniProt P60568 21-153) (ligand)
